Holding throughout (experiment): fluorescence polarization; 50 mM KCl; FP: 50 mM Tris pH 7.5, 50 mM KCl, 5 mM MgCl2, no ATP; Hill-slope fit; temperature not given in the material
The target of series [1] is T1, DDX21ΔN monomer (human, UniProt Q9NR30 186-783, L611R;A612R;A613R;A614R;L615R;A616R).
T1 sequence: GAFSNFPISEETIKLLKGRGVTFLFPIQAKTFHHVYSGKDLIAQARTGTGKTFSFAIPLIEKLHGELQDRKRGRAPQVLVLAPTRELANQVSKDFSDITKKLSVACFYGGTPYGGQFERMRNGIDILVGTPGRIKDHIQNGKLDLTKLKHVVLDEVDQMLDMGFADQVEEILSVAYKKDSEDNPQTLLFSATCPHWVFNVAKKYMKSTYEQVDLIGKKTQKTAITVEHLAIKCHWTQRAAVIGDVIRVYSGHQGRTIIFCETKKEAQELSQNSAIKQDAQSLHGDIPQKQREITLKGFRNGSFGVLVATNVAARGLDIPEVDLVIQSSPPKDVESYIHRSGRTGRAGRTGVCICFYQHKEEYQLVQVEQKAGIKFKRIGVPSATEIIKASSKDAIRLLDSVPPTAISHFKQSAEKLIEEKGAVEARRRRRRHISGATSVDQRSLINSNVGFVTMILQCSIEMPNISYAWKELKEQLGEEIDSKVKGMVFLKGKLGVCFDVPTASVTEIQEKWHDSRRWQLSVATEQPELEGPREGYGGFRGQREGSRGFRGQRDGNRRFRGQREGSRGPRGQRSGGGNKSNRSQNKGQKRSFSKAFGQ
The conditions noted are these: protein: recombinant; label: 5'-FAM; G4.

The target of series [2] is T2, DDX21Fl monomer (human, UniProt Q9NR30 1-783, L611R;A612R;A613R;A614R;L615R;A616R).
T2 sequence: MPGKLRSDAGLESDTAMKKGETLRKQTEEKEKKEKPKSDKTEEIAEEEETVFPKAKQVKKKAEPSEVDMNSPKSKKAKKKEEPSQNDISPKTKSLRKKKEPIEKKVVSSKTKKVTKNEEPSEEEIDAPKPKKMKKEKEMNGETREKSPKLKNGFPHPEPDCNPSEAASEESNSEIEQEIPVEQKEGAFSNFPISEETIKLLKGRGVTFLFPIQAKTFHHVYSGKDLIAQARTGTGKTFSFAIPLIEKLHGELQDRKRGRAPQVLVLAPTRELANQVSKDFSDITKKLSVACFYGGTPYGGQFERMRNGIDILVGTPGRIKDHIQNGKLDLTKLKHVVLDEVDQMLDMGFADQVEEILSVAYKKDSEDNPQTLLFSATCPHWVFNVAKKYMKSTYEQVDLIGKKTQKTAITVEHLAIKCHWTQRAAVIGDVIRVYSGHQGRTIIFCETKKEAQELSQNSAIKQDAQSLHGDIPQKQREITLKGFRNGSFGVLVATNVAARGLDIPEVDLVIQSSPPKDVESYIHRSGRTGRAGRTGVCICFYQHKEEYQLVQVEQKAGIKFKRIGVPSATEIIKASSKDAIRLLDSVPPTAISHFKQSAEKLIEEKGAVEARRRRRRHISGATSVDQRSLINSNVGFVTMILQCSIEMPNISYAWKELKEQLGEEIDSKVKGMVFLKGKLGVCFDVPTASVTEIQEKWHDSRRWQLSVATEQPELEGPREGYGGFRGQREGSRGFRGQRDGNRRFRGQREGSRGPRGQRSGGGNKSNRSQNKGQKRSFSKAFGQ
The conditions noted are these: protein: recombinant; label: 5'-FAM; G4.

In series [3] the target is T3, DDX21ΔN (human, UniProt Q9NR30 186-783).
T3 sequence: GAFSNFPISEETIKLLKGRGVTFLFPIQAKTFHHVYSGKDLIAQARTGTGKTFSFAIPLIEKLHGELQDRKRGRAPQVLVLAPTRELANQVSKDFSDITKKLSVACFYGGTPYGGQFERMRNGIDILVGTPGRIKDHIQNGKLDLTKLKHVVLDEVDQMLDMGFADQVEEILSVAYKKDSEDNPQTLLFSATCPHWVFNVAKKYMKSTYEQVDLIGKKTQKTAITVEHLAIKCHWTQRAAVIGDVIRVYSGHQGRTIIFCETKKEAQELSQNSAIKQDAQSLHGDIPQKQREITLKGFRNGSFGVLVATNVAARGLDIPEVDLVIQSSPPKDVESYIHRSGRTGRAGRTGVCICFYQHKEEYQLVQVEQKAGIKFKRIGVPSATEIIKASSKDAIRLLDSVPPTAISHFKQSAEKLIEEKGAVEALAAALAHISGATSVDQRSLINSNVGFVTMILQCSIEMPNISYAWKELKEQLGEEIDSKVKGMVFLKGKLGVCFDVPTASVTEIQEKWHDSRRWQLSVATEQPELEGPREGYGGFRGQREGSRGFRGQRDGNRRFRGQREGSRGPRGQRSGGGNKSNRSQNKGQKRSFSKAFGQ
The conditions noted are these: protein: recombinant; chain copies: 2; label: 5'-FAM; G4.

In series [4] the target is T4, DDX21Core-DD (human, UniProt Q9NR30 186-620).
T4 sequence: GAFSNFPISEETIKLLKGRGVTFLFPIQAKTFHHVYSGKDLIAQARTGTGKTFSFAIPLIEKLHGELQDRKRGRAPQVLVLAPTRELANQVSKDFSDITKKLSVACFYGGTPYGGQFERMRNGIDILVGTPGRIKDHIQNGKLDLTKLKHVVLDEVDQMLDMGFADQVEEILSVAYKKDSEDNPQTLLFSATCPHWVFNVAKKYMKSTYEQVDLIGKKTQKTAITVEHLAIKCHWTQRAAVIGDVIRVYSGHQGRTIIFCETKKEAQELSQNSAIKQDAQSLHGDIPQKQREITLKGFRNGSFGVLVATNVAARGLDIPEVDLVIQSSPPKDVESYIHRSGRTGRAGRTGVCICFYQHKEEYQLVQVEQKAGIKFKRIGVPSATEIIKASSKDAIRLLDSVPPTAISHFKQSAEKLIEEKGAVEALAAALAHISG
The conditions noted are these: protein: recombinant; tags: C-terminal His6, uncleavable; chain copies: 2; label: 5'-FAM; G4.

Kd data for one molecule are collected here from PMC7721647, “The Human RNA Helicase DDX21 Presents a Dimerization Interface Necessary for Helicase Activity” (iScience, 2020).

Turning to GUUGGGGCGGGCGUUGGGUUUGGGGGGACG (structured_RNA) [Q2 RNA G-quadruplex], the Kd in series [1] amounted to 2.9 ± 0.3 nM; in series [2] it was 9.8 ± 0.9 nM; in series [3], 7.6 ± 0.5 nM; in series [4] it was 23.1 ± 3.2 nM.

What is called Kd is the equilibrium constant for the complex coming apart.
